# Assay results reported in patent publication US6569434 (MERCK, dated 2003).
# T1: rat VEGF A subunit, 164 amino acid mature (secreted) form of the 190 amino acid translation product (rat, UniProt P16612 27-214)
# T1 construct: also called VEGF AB, A subunit; A chain
# T1 sequence: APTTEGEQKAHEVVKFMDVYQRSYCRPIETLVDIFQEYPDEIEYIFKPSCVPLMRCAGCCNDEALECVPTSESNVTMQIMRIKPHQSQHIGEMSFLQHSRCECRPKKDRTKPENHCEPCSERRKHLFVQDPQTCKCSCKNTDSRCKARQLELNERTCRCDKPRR
# Target: T1, rat VEGF A subunit, 164 amino acid …
# Assay: purified native VEGF AB reduced and carboxymethylated; subunits separated by C4 reverse phase HPLC and N-terminally sequenced; single 58 kDa band non-reduced against about 23 kDa reduced on SDS-PAGE
binder,measurement,value
"rat VEGF B subunit, 135 amino acid mature form derived from the 158 amino acid full length form (ligand, Native subunit purified from GS-9L conditioned medium as part of VEGF AB; also called VEGF AB, B subunit; B chain) ALSAGNNSTEMEVVPFNEVWGRSYCRPMEKLVYIADEHPNEVSHIFSPSCVLLSRCSGCCGDEGLHCVALKTANITMQILKIPPNRDPHSYVEMTFSQDVLCECRPILETTKAERRKTKGKRKQSKTPQTEEPHL",binding result,binds
